The values below come from patent publication US20080227954A1 (ZEALAND PHARMA A S, published 2008).

The target of test [1] is PTH (1-34)-antibody of the enzyme immunoassay EIAS(h)-6101 (Peninsula Laboratories, Inc.). The test can be described thus: competitive EIA against biotinylated peptide for the PTH(1-34) antibody.
For test [2], the target named is T1, µ opioid receptor (bovine caudate nucleus synaptic membrane fraction) (bovine, UniProt P79350 1-401).
T1 construct: whole, on cells; Native receptor in brain membranes, not on intact cells; The tissue may hold other opioid receptors; also called µ-receptor; µ opioid receptors
T1 sequence (P79350 whole entry): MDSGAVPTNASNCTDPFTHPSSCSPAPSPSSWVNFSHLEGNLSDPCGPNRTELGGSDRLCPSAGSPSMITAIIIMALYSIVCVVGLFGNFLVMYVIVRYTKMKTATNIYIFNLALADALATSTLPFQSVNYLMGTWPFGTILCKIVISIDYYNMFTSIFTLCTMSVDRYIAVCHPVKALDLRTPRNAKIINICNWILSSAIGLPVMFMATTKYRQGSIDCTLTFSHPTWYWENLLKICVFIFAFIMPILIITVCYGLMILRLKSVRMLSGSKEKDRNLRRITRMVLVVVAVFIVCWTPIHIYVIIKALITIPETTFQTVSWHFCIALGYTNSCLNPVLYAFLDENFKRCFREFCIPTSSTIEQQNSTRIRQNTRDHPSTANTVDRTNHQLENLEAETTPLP
Nature of the test: displacement of 1 nM [3H]DAMGO, bovine caudate synaptic membranes; column Time 0 hours; mean ± SD. The protocol: (§1) Affinities for […] opioid receptor were determined using [³H](D-Ala²,N-Me-Phe⁴, Gly-ol⁵) Enkephalin (DAMGO) (1 nM) as described by Christensen, 1993, Pharmacol. Toxicol. 73:344-345. In short: Bovine brains were placed on ice within minutes after the slaughter. The caudate nuclei were dissected and homogenized in 20 vol. of 0.32 M sucrose. The homogenate was centrifuged at 2000 g for 10 min. The pellet was re-suspended in 10 vol. of 50 mM Tris-HCl buffer 7.4 and stored at −20° C. until use. The synaptic membrane fraction was incubated with 1 nM of [3H]DAMGO in the presence of various concentrations of test ligand. Non-specifically bound [3H]-DAMGO was established using 1 μM naloxone. Following 15 min. incubation at 36° C. samples were filtered through Whatman GF/C filters and washed with buffer. Radioactivity was determined using conventional techniques.

The target in test [3] is T1, µ opioid receptor (bovine caudate …). Nature of the test: displacement of 1 nM [3H]DAMGO, bovine caudate synaptic membranes; column Time 18 hours.
The target is the same in test [4]. The test can be described thus: displacement of 1 nM [3H]DAMGO, bovine caudate synaptic membranes; column Time 0 hours. The procedure:
as §1

Where no end group is shown, it is not given here.

As for H-SVSEIQLMHNLGKHLNSMERVEWLRKKLQDVHNFKKKKKK-OH [H-hPTH(1-34)-K6-OH (PTH(1-34)(Human)-Lys6-OH)], the Relative recovery % in test [1] came out at 61.8%. As a reminder, the IC50 is the concentration at which inhibition is half-maximal. Higher therefore signals a need for much substance. On to YGGFLKEKEKE-OH [Leu-Enkephalin-(Lys-Glu)3-OH], for which the 50% inhibitory concentration (IC50) is 450 nM in test [2] and 900 nM in test [3].

With H-YGGFLEEEEEE-OH [Leu-Enkephalin-(Glu)6-OH (H-Tyr-Gly-Gly-Phe-Leu-Glu6-OH)], the IC50 in test [4] is 10000 nM; in test [3] it was 5000 nM. Turning to H-YGGFLKKKKKK-OH (also called H-Leu-enkephalin-Lys6) [Leu-Enkephalin-(Lys)6-OH (H-Tyr-Gly-Gly-Phe-Leu-Lys6-OH)], the IC50 in test [2] worked out at 17 nM; in test [3] it was 32 nM. Take H-KKKKKKSVSEIQLMHNLGKHLNSMERVEWLRKKLQDVHNF-OH [H-K6-PTH(1-34)-OH (Lys6-PTH(1-34)(Human)-OH)]: the Relative recovery % in test [1] was determined as 79.1%.

Consider SVSEIQLMHNLGKHLNSMERVEWLRKKLQDVHNF-OH [hPTH (1-34) (PTH(1-34)(Human)-OH)], for which the Relative recovery % in test [1] was found to be 90.8%.
